Measured values taken from US20230053360.

Key:
[1] = test system: MMPpep, (prA)GGPQGIWGQG(azK), as the DNA1-MMPpep-DNA2 triblock conjugate linking two DX tiles
[2] = test system: MMPpep-scram, (prA)GQGIPQGWGG(azK), as a DNA-peptide-DNA conjugate linking two DX tiles

human matrix metalloproteinase 8, sequence (chain, as listed by the source): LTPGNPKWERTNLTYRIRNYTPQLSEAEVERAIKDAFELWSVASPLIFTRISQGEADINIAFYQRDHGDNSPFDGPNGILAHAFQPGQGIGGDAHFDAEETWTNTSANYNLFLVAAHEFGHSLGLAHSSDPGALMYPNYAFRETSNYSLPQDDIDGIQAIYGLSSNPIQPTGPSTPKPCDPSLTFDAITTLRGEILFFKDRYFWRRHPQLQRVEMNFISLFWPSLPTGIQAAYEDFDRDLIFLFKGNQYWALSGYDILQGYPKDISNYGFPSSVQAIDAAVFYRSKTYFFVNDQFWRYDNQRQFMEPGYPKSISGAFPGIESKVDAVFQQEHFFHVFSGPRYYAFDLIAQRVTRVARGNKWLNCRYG

human matrix metalloproteinase 8
cleavage of DX tile dimer to individual tiles, native PAGE [1]: Following addition of MMP8 (4 ng protein, incubation for 48 h at 37 °C in PBS) a single band is once again seen, corresponding to the individual tiles
cleavage of DX tile dimer to individual tiles, native PAGE [2]: did not show any cleavage to individual tiles
